The test system of data set [1] is HeLa Kyoto. The data set is described as follows: solubility in G1/S (NP-40 vs SDS abundance) (log2 ratio); higher = more soluble. Particulars: cell cycle stage: G1/S.
Data set [2] deals with HeLa Kyoto. The experiment in a line: melting temperature (median over replicates), in situ; higher = more thermally stable.
The subject of data set [3] is HeLa Kyoto. The data set is described as follows: solubility change mitosis vs G1/S (difference of NP-40 vs SDS log2 ratios) (log2 ratio difference); higher = more soluble in mitosis.
Data set [4] concerns HeLa Kyoto. The experiment in a line: thermal stability score vs G1/S (z-score of summed log2 fold changes over temperatures); higher = more thermally stable than in G1/S.
[5] abbreviates: cell cycle stage: early G1 (4.5 h after nocodazole release).
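For melting temperature (median over replicates), in situ in this document: HeLa Kyoto cells synchronized by double thymidine or nocodazole block, proteins quantified by TMT10plex mass spectrometry, three independent biological replicates.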
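For solubility change mitosis vs G1/S (difference of NP-40 vs SDS log2 ratios) in this document: synchronized HeLa Kyoto cells (double thymidine block for G1/S, nocodazole release for mitosis), protein amounts in NP-40 versus SDS lysates quantified by mass spectrometry, three biological replicates.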
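For solubility in G1/S (NP-40 vs SDS abundance) in this document: HeLa Kyoto cells arrested at G1/S by double thymidine block, proteins quantified by TMT10plex mass spectrometry in mild NP-40 versus SDS extracts, three biological replicates.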
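For thermal stability score vs G1/S (z-score of summed log2 fold changes over temperatures) in this document: synchronized HeLa Kyoto cells, proteins quantified by TMT10plex mass spectrometry, three biological replicates, mitosis taken 0.5 h after nocodazole release, G1/S directly after double thymidine block.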

Turning to “MSDIGDWFRSIPAITRYWFAATVAVPLVGKLGLISPAYLFLWPEAFLYRFQIWRPITATFYFPVGPGTGFLYLVNLYFLYQYSTRLETGAFDGRPADYLFMLLFNWICIVITGLAMDMQLLMIPLIMSVLYVWAQLNRDMIVSFWFGTRFKACYLPWVILGFNYIIGGSVINELIGNLVGHLYFFLMFRYPMDLGGRNFLSTPQFLYRWLPSRRGGVSGFGVPPASMRRAADQNGGGGRHNWGQGFRLGDQ [DERL1]”, in the data set on HeLa Kyoto [1], the “solubility in G1/S (log2)” value was determined as 0.00239. The melting temperature is 51.6 °C in the data set on HeLa Kyoto [2] (cell cycle stage: G1/S) and 55.3 °C in the data set on HeLa Kyoto [2] (cell cycle stage: mitosis). Also, in the data set with HeLa Kyoto [3], the “solubility change mitosis (log2)” value was -0.273. The thermal stability score was -0.109 in the data set on HeLa Kyoto [4] (setting [5]) and -0.882 in the data set with HeLa Kyoto [4] (cell cycle stage: mitosis).

For the sequence “MSDKSELKAELERKKQRLAQIREEKKRKEEERKKKETDQKKEAVAPVQEESDLEKKRREAEALLQSMGLTPESPIVFSEYWVPPPMSPSSKSVSTPSEAGSQDSGDGAVGSRTLHWDTDPSVLQLHSDSDLGRGPIKLGMAKITQVDFPPREIVTYTKETQTPVMAQPKEDEEEDDDVVAPKPPIEPEEEKTLKKDEENDSKAPPHELTEEEKQQILHSEEFLSFFDHSTRIVERALSEQINIFFDYSGRDLEDKEGEIQAGAKLSLNRQFFDERWSKHRVVSCLDWSSQYPELLVASYNNNEDAPHEPDGVALVWNMKYKKTTPEYVFHCQSAVMSATFAKFHPNLVVGGTYSGQIVLWDNRSNKRTPVQRTPLSAAAHTHPVYCVNVVGTQNAHNLISISTDGKICSWSLDMLSHPQDSMELVHKQSKAVAVTSMSFPVGDVNNFVVGSEEGSVYTACRHGSKAGISEMFEGHQGPITGIHCHAAVGAVDFSHLFVTSSFDWTVKLWTTKNNKPLYSFEDNADYVYDVMWSPTHPALFACVDGMGRLDLWNLNNDTEVPTASISVEGNPALNRVRWTHSGREIAVGDSEGQIVIYDVGEQIAVPRNDEWARFGRTLAEINANRADAEEEAATRIPA [DYNC1I2]”, the “solubility in G1/S (log2)” value in the data set with HeLa Kyoto [1] is -0.0277. The melting temperature in the data set on HeLa Kyoto [2] (cell cycle stage: G1/S) is 53.2 °C; in the data set on HeLa Kyoto [2] (cell cycle stage: mitosis), 52.3 °C. In the data set with HeLa Kyoto [3], the “solubility change mitosis (log2)” value was -0.0123. For the same sequence, the thermal stability score with HeLa Kyoto [4] (setting [5]) was -2.66; with HeLa Kyoto [4] (cell cycle stage: mitosis), -3.05.

Regarding “MSDLRITEAFLYMDYLCFRALCCKGPPPARPEYDLVCIGLTGSGKTSLLSKLCSESPDNVVSTTGFSIKAVPFQNAILNVKELGGADNIRKYWSRYYQGSQGVIFVLDSASSEDDLEAARNELHSALQHPQLCTLPFLILANHQDKPAARSVQEIKKYFELEPLARGKRWILQPCSLDDMDALKDSFSQLINLLEEKDHEAVRM [ARL15]”, in the data set on HeLa Kyoto [1], the “solubility in G1/S (log2)” value worked out at 0.118. In the data set on HeLa Kyoto [2] (cell cycle stage: mitosis), the melting temperature amounted to 53.2 °C. Moreover, the “solubility change mitosis (log2)” value in the data set with HeLa Kyoto [3] is -0.114. In addition, the thermal stability score in the data set with HeLa Kyoto [4] (setting [5]) was -0.792; in the data set on HeLa Kyoto [4] (cell cycle stage: mitosis), 0.438.

In the case of “MSDNPPRMEVCPYCKKPFKRLKSHLPYCKMIGPTIPTDQKVYQSKPATLPRAKKMKGPIKDLIKAKGKELETENEERNSKLVVDKPEQTVKTFPLPAVGLERAATTKADKDIKNPIQPSFKMLKNTKPMTTFQEETKAQFYASEKTSPKRELAKDLPKSGESRCNPSEAGASLLVGSIEPSLSNQDRKYSSTLPNDVQTTSGDLKLDKIDPQRQELLVKLLDVPTGDCHISPKNVSDGVKRVRTLLSNERDSKGRDHLSGVPTDVTVTETPEKNTESLILSLKMSSLGKIQVMEKQEKGLTLGVETCGSKGNAEKSMSATEKQERTVMSHGCENFNTRDSVTGKESQGERPHLSLFIPRETTYQFHSVSQSSSQSLASLATTFLQEKKAEAQNHHCVPDVKALMESPEGQLSLEPKSDSQFQASHTGCQSPLCSAQRHTPQSPFTNHAAAAGRKTLRSCMGLEWFPELYPGYLGLGVLPGKPQCWNAMTQKPQLISPQGERLSQVSLLERSSTHIRSLEPPAGLTTSNFSLMRLLGAVQKGWIRCNTTIRKSGFGGITMLFTGYFVLCCSWSFRRLKKLCRPLPWKSTVPPCIGVAKTTGDCRSKTCLD [C17ORF80]”, the “solubility in G1/S (log2)” value in the data set with HeLa Kyoto [1] was determined as 0.0361. Also, the melting temperature turned out to be 54.5 °C in the data set on HeLa Kyoto [2] (cell cycle stage: G1/S) and 54 °C in the data set with HeLa Kyoto [2] (cell cycle stage: mitosis). Moreover, the “solubility change mitosis (log2)” value in the data set with HeLa Kyoto [3] is -0.00249. In addition, the thermal stability score was -2.69 in the data set on HeLa Kyoto [4] (setting [5]) and -2.84 in the data set on HeLa Kyoto [4] (cell cycle stage: mitosis).

Turning to “MSECGGRGGGSSSSEDAEDEGGGGGGPAGSDCLSSSPTLATASSAGRLRRGLRGAFLMARQRPELLCGAVALGCALLLALKFTCSRAKDVIIPAKPPVSFFSLRSPVLDLFQGQLDYAEYVRRDSEVVLLFFYAPWCGQSIAARAEIEQAASRLSDQVLFVAINCWWNQGKCRKQKHFFYFPVIYLYHRSFGPIEYKGPMSAVYIEKFVRRVMKPLLYIPSQSELLDFLSNYEPGVLGYFEFSGSPQPPGYLTFFTSALHSLKKALESTSSPRALVSFTGEWHLETKIYVLDYLGTVRFGVITNKHLAKLVSLVHSGSVYLHRHFNTSLVFPREVLNYTAENICKWALENQETLFRWLRPHGGKSLLLNNELKKGPALFLFIPFNPLAESHPLIDEITEVALEYNNCHGDQVVERLLQHLRRVDAPVLESLALEVPAQLPDPPTITASPCCNTVVLPQWHSFSRTHNVCELCVNQTSGGMKPSSVSVPQCSFFEMAAALDSFYLKEQTFYHVASDSIECSNFLTSYSPFSYYTACCRTISRGVSGFIDSEQGVFEAPTVAFSSLEKKCEVDAPSSVPHIEENRYLFPEVDMTSTNFTGLSCRTNKTLNIYLLDSNLFWLYAERLGAPSSTQVKEFAAIVDVKEESHYILDPKQALMKLTLESFIQNFSVLYSPLKRHLIGSGSAQFPSQHLITEVTTDTFWEVVLQKQDVLLLYYAPWCGFCPSLNHIFIQLARNLPMDTFTVARIDVSQNDLPWEFMVDRLPTVLFFPCNRKDLSVKYPEDVPITLPNLLRFILHHSDPASSPQNVANSPTKECLQSEAVLQRGHISHLEREIQKLRAEISSLQRAQVQVESQLSSARRDEHRLRQQQRALEEQHSLLHAHSEQLQALYEQKTRELQELARKLQELADASENLLTENTWLKILVATMERKLEGRDGAESLAAQREVHPKQPEPSATPQLPGSSPPPANVSATLVSERNKENRTD [TXNDC11]”, in the data set with HeLa Kyoto [1], the “solubility in G1/S (log2)” value is -0.00943. In addition, the melting temperature in the data set with HeLa Kyoto [2] (cell cycle stage: G1/S) was found to be 53.5 °C. Besides, the “solubility change mitosis (log2)” value in the data set on HeLa Kyoto [3] is -0.134. Also, the figures for the thermal stability score in the data set with HeLa Kyoto [4] (setting [5]) and with HeLa Kyoto [4] (cell cycle stage: mitosis) were 0.926 and 2.27, respectively.

Regarding “MSEEIITPVYCTGVSAQVQKQRARELGLGRHENAIKYLGQDYEQLRVRCLQSGTLFRDEAFPPVPQSLGYKDLGPNSSKTYGIKWKRPTELLSNPQFIVDGATRTDICQGALGDCWLLAAIASLTLNDTLLHRVVPHGQSFQNGYAGIFHFQLWQFGEWVDVVVDDLLPIKDGKLVFVHSAEGNEFWSALLEKAYAKVNGSYEALSGGSTSEGFEDFTGGVTEWYELRKAPSDLYQIILKALERGSLLGCSIDISSVLDMEAITFKKLVKGHAYSVTGAKQVNYRGQVVSLIRMRNPWGEVEWTGAWSDSSSEWNNVDPYERDQLRVKMEDGEFWMSFRDFMREFTRLEICNLTPDALKSRTIRKWNTTLYEGTWRRGSTAGGCRNYPATFWVNPQFKIRLDETDDPDDYGDRESGCSFVLALMQKHRRRERRFGRDMETIGFAVYEVPPELVGQPAVHLKRDFFLANASRARSEQFINLREVSTRFRLPPGEYVVVPSTFEPNKEGDFVLRFFSEKSAGTVELDDQIQANLPDEQVLSEEEIDENFKALFRQLAGEDMEISVKELRTILNRIISKHKDLRTKGFSLESCRSMVNLMDRDGNGKLGLVEFNILWNRIRNYLSIFRKFDLDKSGSMSAYEMRMAIESAGFKLNKKLYELIITRYSEPDLAVDFDNFVCCLVRLETMFRFFKTLDTDLDGVVTFDLFKWLQLTMFA [CAPN1]”, the “solubility in G1/S (log2)” value in the data set on HeLa Kyoto [1] was -0.203. The melting temperature in the data set on HeLa Kyoto [2] (cell cycle stage: G1/S) was found to be 55.9 °C; with HeLa Kyoto [2] (cell cycle stage: mitosis), 56.5 °C. In the data set on HeLa Kyoto [3], the “solubility change mitosis (log2)” value was -0.164. Further, the thermal stability score with HeLa Kyoto [4] (setting [5]) is -0.914; in the data set on HeLa Kyoto [4] (cell cycle stage: mitosis), -1.67.

As to “MSEGNAAGEPSTPGGPRPLLTGARGLIGRRPAPPLTPGRLPSIRSRDLTLGGVKKKTFTPNIISRKIKEEPKEEVTVKKEKRERDRDRQREGHGRGRGRPEVIQSHSIFEQGPAEMMKKKGNWDKTVDVSDMGPSHIINIKKEKRETDEETKQILRMLEKDDFLDDPGLRNDTRNMPVQLPLAHSGWLFKEENDEPDVKPWLAGPKEEDMEVDIPAVKVKEEPRDEEEEAKMKAPPKAARKTPGLPKDVSVAELLRELSLTKEEELLFLQLPDTLPGQPPTQDIKPIKTEVQGEDGQVVLIKQEKDREAKLAENACTLADLTEGQVGKLLIRKSGRVQLLLGKVTLDVTMGTACSFLQELVSVGLGDSRTGEMTVLGHVKHKLVCSPDFESLLDHKHR [POLR3D]”, the “solubility in G1/S (log2)” value with HeLa Kyoto [1] came out at 0.144. The sequence further displayed a melting temperature in the data set with HeLa Kyoto [2] (cell cycle stage: mitosis) of 48.8 °C. Further, the “solubility change mitosis (log2)” value in the data set on HeLa Kyoto [3] was -0.118. Also, the thermal stability score with HeLa Kyoto [4] (setting [5]) is -0.688; with HeLa Kyoto [4] (cell cycle stage: mitosis), -1.1.

Regarding “MSELTKELMELVWGTKSSPGLSDTIFCRWTQGFVFSESEGSALEQFEGGPCAVIAPVQAFLLKKLLFSSEKSSWRDCSEEEQKELLCHTLCDILESACCDHSGSYCLVSWLRGKTTEETASISGSPAESSCQVEHSSALAVEELGFERFHALIQKRSFRSLPELKDAVLDQYSMWGNKFGVLLFLYSVLLTKGIENIKNEIEDASEPLIDPVYGHGSQSLINLLLTGHAVSNVWDGDRECSGMKLLGIHEQAAVGFLTLMEALRYCKVGSYLKSPKFPIWIVGSETHLTVFFAKDMALVAPEAPSEQARRVFQTYDPEDNGFIPDSLLEDVMKALDLVSDPEYINLMKNKLDPEGLGIILLGPFLQEFFPDQGSSGPESFTVYHYNGLKQSNYNEKVMYVEGTAVVMGFEDPMLQTDDTPIKRCLQTKWPYIELLWTTDRSPSLN [FAM188A]”, the “solubility in G1/S (log2)” value in the data set with HeLa Kyoto [1] was 0.00352. In the data set with HeLa Kyoto [2] (cell cycle stage: mitosis), this sequence came in with a melting temperature of 52.9 °C. Further, the “solubility change mitosis (log2)” value in the data set with HeLa Kyoto [3] is -0.147. Also, the thermal stability score with HeLa Kyoto [4] (setting [5]) is -0.555; with HeLa Kyoto [4] (cell cycle stage: mitosis), -1.31.

For the origin of these results see the supplement of paper PMC5998384.
